Assay results taken from publication PMC9876794 (2022).
Residue numbers refer to the chain shown, from its start.

B1: C2738 (antibody, V domains shown)
VH: QVQLQESGPGLVKPSETLSLTCTVSGGSISSYYWSWIRQPAGKGLEWIGRIYTSGSTNYNPSLKSRVTMSVDTSKNQFSLKLSSVTAADTAVYYCARDLWGGSRPFNWFDPWGQGTLVTVSS
VL: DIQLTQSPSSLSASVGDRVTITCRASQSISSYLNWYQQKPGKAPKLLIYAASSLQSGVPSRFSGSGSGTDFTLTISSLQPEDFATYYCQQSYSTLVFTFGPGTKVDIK
B2: D165 (antibody, V domains shown)
VH: QVQLVQSGAEVKKPGASVKVSCKASGYTFSNYVINWVRQAPGQRPEWMGWINADNGHTVYSQKLQGRVTITTDTSASEAYMELSGLRSEDTAVYYCARGREDYYNNEPYGMDVWGQGTTVTVSS
VL: DIQMTQSPSSLSASVGDRVTITCRASQTISNYLNWYQQKPGQAPKLLIFAASSLQTGVPSRFSGSGSGTTFTLTISSLQPEDFATYYCQQSYGSLYTFGQGTKLDIK
B3: D148 (antibody, V domains shown)
VH: QLQLQESGPGLVKPSETLSLTCTVSGGSISSSSYYWGWIRQPPGKGLEWIGSIYYSGSTYYNPSLKSRVTISVDTSKNQFSLKLSSVTAADTAVYYCARQTIYYDSSGSLEVEPMDVWGQGTTVTVSS
VL: not shown
B4: C2695 (antibody, V domains shown)
VH: EVQLVESGGGLAQPGRSLRLSCAASGFKFDDYAMHWVRQAPGQGLEWVSGIDWNSGIIGYADSVMGRFTISRDNAKKSLYLQMNSLRAEDTALYYCAKSGGFGEFKWFDPWGQGTLVTVSS
VL: EIVMTQSPVTLSVSPGERATLSCRASQSVSGNLAWYQQKPGQAPRLLIYGASTRATGFPARFSGSGSGTEFTLTISRLQSEDFAVYYCQQYNKWPRTFGQGTKLEIK
B5: C2698 (antibody, V domains shown)
VH: B4 VH with A40V, A88T
VL: B4 VL with V9A, G31S
B6: D069 (antibody, V domains shown)
VH: QVQLVESGGGVVQPGGSLRLSCAASGFTFNIYGMHWVRQAPGKGLEWVAFIRYDGSNKYYADSVKGRFTISRDNSKNTLYLQMNSLRAEDTAVYYCAKSVGYYASGSYYFDYWGQGTLVTVSS
VL: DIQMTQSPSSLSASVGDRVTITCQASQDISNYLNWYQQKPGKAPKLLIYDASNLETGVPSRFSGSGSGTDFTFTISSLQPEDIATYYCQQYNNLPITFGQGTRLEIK
B7: C2726 (antibody, V domains shown)
VH: EVQLVQSGAEVKKPGESLKISCKGSGYSFTSYWIGWVRQMPGKGLEWMGIIYPGDSDTRYSPSFQGQVTISADKSISTAYLQWSSLKASDTAMYYCARRTAARTNGVCLDYWGQGTLVTVSS
VL: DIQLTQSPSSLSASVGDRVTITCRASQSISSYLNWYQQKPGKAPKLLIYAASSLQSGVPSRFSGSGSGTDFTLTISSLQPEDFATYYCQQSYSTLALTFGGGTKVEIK
B8: D100 (antibody, V domains shown)
VH: QVQLVQSGAEVKKPGASVKVSCKASGYTFTSYGISWVRQAPGQGLEWMGWISAYNGNTNYAQKLQGRVTMTTDTSTSTAYMELRSLRSDDTAVYYCARVPDRRETPYYDFWSGYSIFDYWGQGTLVTVSS
VL: DIQMTQSPSSLSASVGDRVTITCRASQGISNYLAWFQQKPGKAPKSLIYAASSLQSGVPSKFSGSGSGTDFTLTISSLQPEDFATYYCQQYNSYPLTFGGGTKVEIK
B9: C2744 (antibody, V domains shown)
VH: EVQLLESGGGLVQTGGSLRLSCAASGFTFSSYAMSWVRQAPGKGLEWVSAISGTGGSTYYADSVKGRFTISRDHSKNTLYLQMNSLRAEDTAVYYCAKPINMIDPHDAFDIWGQGTMVTVSS
VL: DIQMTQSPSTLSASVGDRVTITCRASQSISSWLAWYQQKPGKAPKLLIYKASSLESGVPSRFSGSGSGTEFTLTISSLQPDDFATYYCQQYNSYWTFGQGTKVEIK
B10: C2715 (antibody)
chain 1: not shown
chain 2: DIQLTQSPSSVSASVGDRVTITCRASQGISSWLAWYQQKPGKAPKLLIYAASSLQSGVPSRFSGSGSGTDFTLTISSLQPEDFATYYCQQANSFPRTFGQGTKVEIK
B11: D173 (antibody, V domains shown)
VH: EVQLVQSGAEVKKPGESLRISCKGSGYSFTSYWISWVRQMPGKGLEWMGRIDPSDSYTNYSPSFQGHVTISADKSISTAYLQWSSLKASDTAMYYCASQGLVPAAIEIWDYWGQGTLVTVSS
VL: EIVLTQSPATLSLSPGERATLSCRASQSVSSYLAWYQQKPGQAPRLLIYDASNRATGIPARFSGSGSGTDFTLTISSLEPEDFAVYYCQQHSNWPLTFGGGTKVEIK
B12: D103 (antibody, V domains shown)
VH: QVQLVESGGGVVQPGRSLRLSCAASGFTFSSYGMHWVRQAPGKGLEWVAVISYDGSNKYYADSVKGRFTISRDNSKNTLYLQMNSLRAEDTAVYYCAKGGYYDSSAYYGPLDYWGQGTLVTVSS
VL: SYVLTQPPSVSVAPGKTARITCGGNNIGSKSVHWYQQKPGQAPVLVVYDDSDRPSGIPERFSGSNSGNTATLTISRVEAGDEADYYCQVWDSSSDHWVFGGGTKLTVL
B13: D001 (antibody, V domains shown)
VH: QVQLVESGGGVVQPGRSLRLSCAASGFTFSSYGMHWVRQAPGKGLEWVAVISYDGSNKYYVDSVKGRFTISRDNSKNTLYLQMNSLRAEDTAVYYCAKEGGSYYGGGGYFDYWGQGTLVTVSS
VL: DIQMTQSPSSLSASVGDRVTITCQASQDISNYLHWYQQKPGKAPKLLIYDASNLETGVPSRFSGSGSGTDFTLTISSLQPEDIATYYCQQYDNLPYTFGQGTKLEIK
B14: D040 (antibody, V domains shown)
VH: QVQLVESGGGVVQPGRSLRLSCAASGFTFSSYGMHWVRQAPGKGLEWVTAISYDGSNKYYADSVRGRFTISRDNSKRTLYLQMNSLRAEDTAVYYCAKGVGPYCSGGSCYSPYFDYWGQGTLVTVSS
VL: B13 VL with V15I, S26N, H34N, G41R, N53D, L73F, Y91S, Y96L, Q100G, L104V
B15: D162 (antibody, V domains shown)
VH: QVQLVESGGGVVQPGGSLRLSCAASGFTFSSYGMHWVRQAPGKGLEWVAFIRYDGSNKYYADSVKGRFTISRDNSKNTLYLQMNSLRAEDTAVYYCAKDQYYYGSGSYPWFDPWGQGTLVTVSS
VL: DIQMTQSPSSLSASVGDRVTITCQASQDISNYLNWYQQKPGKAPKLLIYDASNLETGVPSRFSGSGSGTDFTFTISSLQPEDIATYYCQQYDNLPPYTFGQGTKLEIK
B16: C2722 (antibody, V domains shown)
VH: EVQLVESGGGLVQPGGSLRLSCAASGFTFSSYSMNWVRQAPGKGLEWVSYISSSSSTIYYADSVKGRFTISRDNAKNSLYLQMNSLRAEDTAVYYCARDDGGGAYYDFWSGYYGDYWGQGTLVTVSS
VL: EIVLTQSPATLSLSPGERATLSCRASQSVSSYLAWYQQKPGQAPRLLIYDASNRATGIPARFSGSGSGTDFTLTISSLEPEDFAVYYCQQRSNWPPFTFGPGTKVDIK
B17: D058 (antibody, V domains shown)
VH: QVQLQESGPGLVKPSETLSLTCTVSGYSISSGYYWGWIRQPPGKGLEWIGSIYHSGSTYYNPSLKSRVTISVDTSKNQFSLKLSSVTAADTAVYYCARDFPLTLYGVLISDAFDIWGQGTMVTVSS
VL: SYELTQPPSVSVSPGQTARITCSADALPKQYAYWYQQKPGQAPVLVIYKDSERPSGIPERFSGSSSGTTVTLTISGVQAEDEADYYCQSADSSGKVFGGGTKLTVL
B18: C2731 (antibody, V domains shown)
VH: QVQLQQWGAGLLKPSETLSRTCAVYGGSFSGYYWSWIRQSPGKGLEWIGEINHRGSTNYNPSLKSRVTISVDTSKNQLSLELRSVTAADTAVYYCARSPGWTTVTRPFDYWGQGALVTVSS
VL: EIVLTQSPGTLSLSPGERATLSCRASQSVSSNYLAWYQQKPGQAPRLLVYGASNRATGIPDRFSGSGSGTDFTLTISRLEPEDFAVFYCQQYSSSPVTFGQGTRLEIK
B19: D044 (antibody, V domains shown)
VH: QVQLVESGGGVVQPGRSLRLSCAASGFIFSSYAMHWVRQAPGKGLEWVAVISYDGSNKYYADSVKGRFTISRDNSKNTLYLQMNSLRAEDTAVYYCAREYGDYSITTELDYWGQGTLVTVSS
VL: QSVLTQPPSVSGAPGQRVTISCTGSSSNIGAGYDVHWYQQLPGTAPKLLIYGNSNRPSGVPDRFSGSKSGTSASLAITGLQAEDEADYYCQSYDSSLSGYVFGTGTKVTVL
B20: C2697 (antibody, V domains shown)
VH: EVQLVESGGGLVQPGGSLRLSCAASGFTFSSSYSMNWVRQAPGKGLEWVSYISSSSSTIYYADSVKGRFTISRDNAKNSLYLQMNSLRDEDTAVYYCARHYGDKTYYFYGMDVWGQGTTVTVSS
VL: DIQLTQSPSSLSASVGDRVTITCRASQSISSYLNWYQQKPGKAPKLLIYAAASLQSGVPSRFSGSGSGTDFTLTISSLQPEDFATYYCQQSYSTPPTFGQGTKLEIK
B21: D108 (antibody, V domains shown)
VH: QVQLVQSGAEVKKPGASVKVSCKASGYTFTSSDINWVRQATGQGLEWVGWMNPNSGNTGYAQKFQGRVTMTRNTSISTAYMELSSLRSEDTAVYYCASGPYWSGYYYYFDNWGQGTLVTVSS
VL: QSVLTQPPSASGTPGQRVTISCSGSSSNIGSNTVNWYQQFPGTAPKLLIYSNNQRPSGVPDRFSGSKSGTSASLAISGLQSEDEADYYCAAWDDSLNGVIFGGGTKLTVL
B22: D102 (antibody, V domains shown)
VH: QVQLVESGGGVVQPGGSLRLSCAASGFTFSSYGMHWVRQAPGKGLEWVAFIRYDGSNKYYADSVKGRFTISRDNSKNTLYLQMNSLRAEDTAVYYCAKTLGYYYDSSGYYLDYWGQGTLVTVSS
VL: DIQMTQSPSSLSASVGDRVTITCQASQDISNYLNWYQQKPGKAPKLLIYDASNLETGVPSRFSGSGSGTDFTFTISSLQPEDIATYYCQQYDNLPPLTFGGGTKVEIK
B23: D005 (antibody, V domains shown)
VH: QVQLVQSGAEVKKPGASVKVSCKASGYTFTNYYIHWVRQAPGQGLEWMGIINPSAGSTTYAQKFQGRVTMTSDTSTSTVYMELSSLRSEDTAVYYCARAGELIPAARASFQHWGQGTLVTVSS
VL: DIQMTQSPSTLSASVGDRVTITCRASQSISTWLAWYQQKPGKAPKILIYKASSLESGVPSRFSGSGSGTEFTLTLSSLQPDDFATYYCQQYNSYSPTFGQGTKVEIK
B24: C2710 (antibody, V domains shown)
VH: EVQLVESGGGLVQPGGSLRLSCAASGFTFSSYWMSWVRQAPGKGLEWVANINQDGSEIHYVDSVKGRFTISRDNAKNSLYLQMNSLRAEDTAVYYCAREGGPYDFWSGSNWFDPWGQGTLVTVSS
VL: QSALTQPASVSGSPGQSITISCTGTSSDVGGYNFVSWYQQRPGKAPKLMIYEVHNRPSGVSNHFSGSKSGNTASLTISGLQAEDEADYYCSSYTSNSLYVFGTGTKVTVL

Assays:
[1] = target: T1, SARS-CoV-2 spike RBD (WT) (Severe acute respiratory syndrome …, UniProt P0DTC2); test: ELISA; set-up: unit not given here
[2] = target: T1, SARS-CoV-2 spike RBD (WT); test: BLI

Row | Binder | binding score [1] | Kd [2] [nM]
1 | B1 | 21.1 | 10.2
2 | B2 | 1370 | 117
3 | B3 | 29 | 6.46
4 | B4 | 45.1 | 133
5 | B5 | 79.2 | 152
6 | B6 | 252 | 140
7 | B7 | 3440 | 133
8 | B8 | > 10000 | 530
9 | B9 | 5390 | 248
10 | B10 | 189 | 63.4
11 | B11 | 181 | 60.3
12 | B12 | > 10000 | 2700
13 | B13 | 77.6 | 16.6
14 | B14 | 7.71 | 32
15 | B15 | 958 | 1440
16 | B16 | 177 | 43.3
17 | B17 | 84.8 | 24.1
18 | B18 | 4400 | 143
19 | B19 | 266 | 56.9
20 | B20 | 2060 | 101
21 | B21 | 6120 | 6840
22 | B22 | 22.3 | 49.1
23 | B23 | 96 | 49.8
24 | B24 | 9.12 | 11.9
